Experimental findings from EP0528847B1 are described below.

Test [1] deals with full-length human γ-interferon receptor, on cells (human) (UniProt P15260). Description: ¹²⁵I-IFN-γ binding to COS7 cells transfected with plasmid T886-5, Expt. 2.
Test [2] has the same target. Description: ¹²⁵I-IFN-γ binding to COS7 cells transfected with plasmid T884-5, Expt. 1.
For test [3] the target is unchanged. Description: ¹²⁵I-IFN-γ binding to COS7 cells transfected with plasmid T886-6, Expt. 3'.
Test [4] shares this target. The experiment in a line: ¹²⁵I-IFN-γ binding to COS7 cells transfected with plasmid T884-5, Expt. 1'.
Test [5] has the same target. The experiment in a line: ¹²⁵I-IFN-γ binding to COS7 cells transfected with plasmid T886-6, Expt. 3.
Test [6] shares this target. The experiment in a line: ¹²⁵I-IFN-γ binding to COS7 cells transfected with plasmid T886-5, Expt. 2'.

Chain of UniProt P15260 (P15260 18-489): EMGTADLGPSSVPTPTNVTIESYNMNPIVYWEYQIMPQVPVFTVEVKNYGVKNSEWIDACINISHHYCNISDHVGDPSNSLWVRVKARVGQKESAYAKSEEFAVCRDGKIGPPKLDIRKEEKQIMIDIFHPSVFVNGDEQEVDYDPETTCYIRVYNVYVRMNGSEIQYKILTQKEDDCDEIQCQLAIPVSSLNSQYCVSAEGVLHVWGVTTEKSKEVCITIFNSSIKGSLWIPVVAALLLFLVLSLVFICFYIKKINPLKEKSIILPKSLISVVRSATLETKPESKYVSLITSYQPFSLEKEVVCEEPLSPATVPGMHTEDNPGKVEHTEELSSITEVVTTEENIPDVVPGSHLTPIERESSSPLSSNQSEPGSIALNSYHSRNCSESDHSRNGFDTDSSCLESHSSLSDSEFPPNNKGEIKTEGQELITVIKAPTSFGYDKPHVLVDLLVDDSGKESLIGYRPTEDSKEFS

Turning to “human γ-interferon (amino acids 4-137 of the mature protein), produced in E. coli 294 from plasmid pGIF4-137 (from UniProt P01579 4-137) (ligand)”, the Background Binding (1), ¹²⁵I IFN-γ cpm bound at 0.1 µg/ml unlabeled IFN-γ in test [1] worked out at 1980 cpm; in test [2], 1830 cpm; in test [3], 2090 cpm; in test [4] it was 1560 cpm; in test [5] it was 2530 cpm; in test [6] it was 2400 cpm. Besides, the Background Binding (2), ¹²⁵I IFN-γ cpm bound at 10 µg/ml unlabeled IFN-γ worked out at 150 cpm in test [1]; 130 cpm in test [2]; 69.8 cpm in test [3]; 77.8 cpm in test [4]; 231 cpm in test [5]; 198 cpm in test [6]. Moreover, the Specific Binding (3) = (1) - (2) in test [1] turned out to be 1830 cpm; in test [2] it was 1700 cpm; in test [3] it was 2020 cpm; in test [4], 1480 cpm; in test [5] it was 2300 cpm; in test [6] it was 2210 cpm.
